Data on one molecule can be found in patent JP2019218309A (dated 2019).

No end group written: not given here.

Test [1] addresses T1, 測定用抗原(1): PEG化GIP(1−15) (PEGylated N-terminal 15 amino acids of active GIP) (also: PEGylated, site not given here).
T1 construct: also called GIP(1-15)
T1 peptide: YAEGTFISDYSIAMD
In words: ELISA, immobilised PEGylated peptide, hybridoma culture supernatant.

Test [2] deals with T2, 測定用抗原(2): PEG化GIP(3−15) (PEGylated N-terminal 13 amino acids of inactive GIP) (also: PEGylated, site not given here).
T2 construct: also called GIP(3-15)
T2 peptide: EGTFISDYSIAMD
The test is described as above.

Test [3] deals with T3, GIP(3−42) (inactive GIP).
T3 construct: also called 非活性型GIP; 不活性型のGIP(3−42)
T3 peptide: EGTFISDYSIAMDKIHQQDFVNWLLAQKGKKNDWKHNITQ
In words: sandwich ELISA: anti-total GIP monoclonal antibody as capture, biotinylated m1 at 1 ug/mL as detection. In general terms: An ELISA detects its analyte on a solid surface through an enzyme-linked reagent.

Test [4] addresses T4, GIP(1−42) (active GIP).
T4 construct: a Human (total) GIP ELISA kit was used; also called 活性型GIP; GIP(1-42)
T4 peptide: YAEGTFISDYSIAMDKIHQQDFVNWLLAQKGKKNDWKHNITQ
The test is described as follows: sandwich ELISA: anti-total GIP monoclonal antibody as capture, biotinylated m1 at 1 ug/mL as detection, GIP at 8.2-2000 pg/mL.

B1: ハイブリドーマ9B9H5−B9株から産生されるモノクローナル抗体 (anti-active GIP monoclonal antibody of hybridoma 9B9H5-B9) (antibody, V domains shown)
VH: QVQLQQPGAELVKPGASVKLSCKASGYTFTSFWMHWVIQRPGQGLEWIGEMNPSDGRTHFNEKFKTKATLTIDTSSNTAYMELNSLTSEDSAVYYCARRMEDWGQGTLVTVSA
VL: DIKMTQSPSSMYASLGERVTITCKASQDINSYLGWFQQKPGKSPKTLIYGANRLVDGVPSRFSGSGSGQDYSLTISSLEYDDMGIYYCLQYDEFPLTFGAGTKLELKR
notes: Mouse (BALB/c) hybridoma monoclonal antibody, purified on Protein A; also called 抗活性型GIP抗体; 抗活性型GIPモノクローナル抗体
In the case of B1, the binding result in test [1] is “binds”; in test [2] it was “no binding”; in test [3], “no binding”; in test [4], “binds”.
